Data: patent US20030077318A1
Like-named read-outs stand apart in the source and are kept apart here.

T1: soluble H-2K^b (K^bsol), heterodimer of truncated K^b heavy chain and murine β-2 microglobulin, purified empty from Drosophila cells (murine), P01901
T1 chain 1: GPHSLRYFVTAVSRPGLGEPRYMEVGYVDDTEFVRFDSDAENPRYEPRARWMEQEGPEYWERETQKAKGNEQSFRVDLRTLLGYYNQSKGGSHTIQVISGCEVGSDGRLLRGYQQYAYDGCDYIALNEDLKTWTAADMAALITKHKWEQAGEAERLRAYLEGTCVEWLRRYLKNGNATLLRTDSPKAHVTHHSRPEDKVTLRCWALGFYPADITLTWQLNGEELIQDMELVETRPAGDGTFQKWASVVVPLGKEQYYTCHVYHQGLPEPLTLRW
T1 chain 2: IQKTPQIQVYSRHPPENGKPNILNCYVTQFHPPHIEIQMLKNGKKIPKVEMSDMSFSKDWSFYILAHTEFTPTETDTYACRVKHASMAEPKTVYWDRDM


Experiments:
[1] = target: T1, soluble H-2K^b (K^bsol), heterodimer of …
[2] = target: T1, soluble H-2K^b (K^bsol), heterodimer of …
[3] = target: T1, soluble H-2K^b (K^bsol), heterodimer of …; assay: competitive RIA against [^125I]VSV-8 on K^bsol, P30 gel filtration, 23° C.

Binder	half-time of association [1] [min]	Kd [2] [nM]	Kd [3] [nM]
RGYVYQGL (modifications not checked) [[^125I]VSV-8]	5	33	
RGYVYQGL (modifications not checked) [VSV-8]			3.7
LRGYVYQGL (modifications not checked) [VSV-9N]			7.3
DLRGYVYQGL (modifications not checked) [VSV-10N]			390
RGYVYQGLK (modifications not checked) [VSV-9C]			6.9
RGYVYQGLKS (modifications not checked) [VSV-10C]			21
